Experimental findings from US20030219825A1 are described below.

The assay addresses melanocortin-1 receptor (MC1R) (human) (UniProt Q01726). The assay can be described thus: cell-based or functional assay. Conditions: scale: response value.
Chain of UniProt Q01726 (Q01726 whole entry): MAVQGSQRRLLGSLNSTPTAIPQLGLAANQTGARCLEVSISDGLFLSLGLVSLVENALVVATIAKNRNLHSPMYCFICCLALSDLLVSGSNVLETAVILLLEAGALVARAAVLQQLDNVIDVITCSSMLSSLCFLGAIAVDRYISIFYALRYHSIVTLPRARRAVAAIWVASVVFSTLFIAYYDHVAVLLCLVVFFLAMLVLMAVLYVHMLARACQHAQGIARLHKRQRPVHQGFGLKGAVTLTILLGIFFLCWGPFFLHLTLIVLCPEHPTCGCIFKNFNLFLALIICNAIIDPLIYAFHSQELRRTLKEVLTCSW

“4-L-norleucine-7-D-phenylalanine-alpha melanocyte stimulating hormone (from UniProt P01189 138-150) (peptide)” came in with a maximal response value (z value minus background z value, luminescence, 6xCRE-luciferase reporter lawn) of 25.
